Results: patent US20180022809A1 (VENTANA MEDICAL SYSTEMS, published 2018)
No end group written: not given here.

T1: peptide fragment of the cytoplasmic region (amino acid residues 279-290) of human PD-L1 (human, not fully specified)
T1 construct: For immunization, Cys-Gly was appended to the N-terminus and the peptide was conjugated to KLH; also called PD-L1 antigen
T1 peptide: SKKQSDTHLEET

B1: anti-PD-L1 antibody SP142 (antibody, V domains shown)
VH: QSLEESGGRLVKPDETLTITCTVSGIDLSSNGLTWVRQAPGEGLEWIGTINKDASAYYASWAKGRLTISKPSSTKVDLKITSPTTEDTATYFCGRIAFKTGTSIWGPGTLVTVSS
VL: AIVMTQTPSPVSAAVGGTVTINCQASESVYSNNYLSWFQQKPGQPPKLLIYLASTLASGVPSRFKGSGSGTQFTLTISGVQCDDAATYYCIGGKSSSTDGNAFGGGTEVVVR
notes: the constant regions are not; also called rabbit anti-human PD-L1 (SP142) monoclonal antibody

Legend:
[1] = biological target: human programmed death-ligand 1 (PD-L1) (human) (UniProt Q9NZQ7); test: IHC on FFPE tissue sections of 119 NSCLC cases
[2] = biological target: T1, peptide fragment of the cytoplasmic …; test: ELISA screen on the PD-L1 peptide antigen

Chain of human programmed death-ligand 1 (PD-L1) (human) (Q9NZQ7 19-290 limits assumed): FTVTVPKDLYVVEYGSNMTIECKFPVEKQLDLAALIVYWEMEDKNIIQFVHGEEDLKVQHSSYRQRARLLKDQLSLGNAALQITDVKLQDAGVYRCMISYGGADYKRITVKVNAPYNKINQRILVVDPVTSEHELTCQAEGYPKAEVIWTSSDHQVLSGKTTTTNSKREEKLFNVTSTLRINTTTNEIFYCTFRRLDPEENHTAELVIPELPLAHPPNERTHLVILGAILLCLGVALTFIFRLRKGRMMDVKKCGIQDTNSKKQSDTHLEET

Molecule	mean H score (extent of membrane immunoreactivity) (H score (range 0 to 300)) [1]	binding result [2]
anti-PD-L1 antibody E1L3N (Cell Signaling Technology)	56	
B1		binds
